The target in the assay is GST-Sir3^SaID (S. cerevisiae, UniProt P06701 531-723). Nature of the assay: pull-down.
Sequence of GST-Sir3^SaID (P06701 531-723): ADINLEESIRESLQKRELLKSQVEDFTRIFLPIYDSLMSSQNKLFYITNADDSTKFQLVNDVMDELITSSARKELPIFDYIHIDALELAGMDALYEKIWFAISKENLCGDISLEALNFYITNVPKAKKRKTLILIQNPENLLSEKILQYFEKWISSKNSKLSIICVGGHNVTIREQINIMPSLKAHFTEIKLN

B1: Sae2^C (purified) (domain or fragment, S. cerevisiae, UniProt P46946 173-345, looked up)
chain: ENPESTSPNLYKNVKDNFLFDFNTNPLTKRAWILEDFRPNEDIAPVKRGRRKLERFYAQVGKPEDSKHRSLSVVIESQNSDYEFAFDNLRNRSKSPPGFGRLDFPSTQEGNEDKKKSQEIIRRKTKYRFLMASNNKIPPYEREYVFKREQLNQIVDDGCFFWSDKLLQIYARC
With B1, the binding result was “binds”.
